The values that follow come from PMC3312455 (2009).

This assay addresses T1, VEGFR2/KDR ECD (Homo sapiens, UniProt P35968).
T1 chain: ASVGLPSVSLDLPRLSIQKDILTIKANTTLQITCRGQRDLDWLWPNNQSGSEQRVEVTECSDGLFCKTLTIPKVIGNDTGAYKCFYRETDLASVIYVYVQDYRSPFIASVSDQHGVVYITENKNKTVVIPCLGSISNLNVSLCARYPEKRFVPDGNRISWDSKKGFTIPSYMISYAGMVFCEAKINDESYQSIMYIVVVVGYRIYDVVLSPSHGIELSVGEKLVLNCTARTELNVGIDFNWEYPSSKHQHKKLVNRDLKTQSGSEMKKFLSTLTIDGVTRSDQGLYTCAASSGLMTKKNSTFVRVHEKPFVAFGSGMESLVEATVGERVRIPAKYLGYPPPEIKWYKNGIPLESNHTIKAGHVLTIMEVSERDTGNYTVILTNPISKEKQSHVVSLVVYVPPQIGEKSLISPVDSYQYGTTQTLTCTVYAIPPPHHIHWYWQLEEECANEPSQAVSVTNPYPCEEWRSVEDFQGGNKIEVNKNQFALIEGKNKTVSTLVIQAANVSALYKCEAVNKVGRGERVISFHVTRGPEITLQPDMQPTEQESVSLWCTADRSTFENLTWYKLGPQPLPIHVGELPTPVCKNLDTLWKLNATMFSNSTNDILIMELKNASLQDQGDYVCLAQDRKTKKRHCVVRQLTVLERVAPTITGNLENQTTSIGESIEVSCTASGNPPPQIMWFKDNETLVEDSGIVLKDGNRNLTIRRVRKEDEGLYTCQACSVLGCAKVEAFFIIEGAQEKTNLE
The experiment in a line: SPR.

B1: VEGF-A165 (protein)
chain: MTDRQTDTAPSPSYHLLPGRRRTVDAAASRGQGPEPAPGGGVEGVGARGVALKLFVQLLGCSRFGGAVVRAGEAEPSGAARSASSGREEPQPEEGEEEEEKEEERGPQWRLGARKPGSWTGEAAVCADSAPAARAPQALARASGRGGRVARRGAEESGPPHSPSRRGSASRAGPGRASETMNFLLSWVHWSLALLLYLHHAKWSQAAPMAEGGGQNHHEVVKFMDVYQRSYCHPIETLVDIFQEYPDEIEYIFKPSCVPLMRCGGCCNDEGLECVPTEESNITMQIMRIKPHQGQHIGEMSFLQHNKCECRPKKDRARQEKKSVRGKGKGQKRKRKKSRYKSWSVPCGPCSERRKHLFVQDPQTCKCSCKNTDSRCKARQLELNERTCRCDKPRR
B1: the affinity, expressed as Kd, was 0.041 nM.

B2: HIV-Tat (protein)
chain: MEPVDPRLEPWKHPGSQPKTACTNCYCKKCCFHCQVCFITKALGISYGRKKRRQRRRAPQGSQTHQVSLSKQPTSQSRGDPTGPKE
In turn, B2 displayed a Kd of 0.07 nM.

In general, Kd refers to a measure of binding affinity in units of concentration.
